Earlier results as cited in publication PMC3937454.

Legend:
Lys143 = Lys143 (UniProt position 161, ASHLRKLRKRL); conditions: not stated (lipid-free or lipid-bound state not specified for the quoted values)
Lys146 = Lys146 (UniProt position 164, LRKLRKRLLRD); conditions: not stated (lipid-free or lipid-bound state not specified for the quoted values)

Substance: Apolipoprotein E3 (apoE3) (Homo sapiens)
- pKa (Lys143): 9.5
- pKa (Lys146): 9.2
